For test [1], the target named is T1, human GPC1 on the surface of GPC1-positive cancer cells (TE8, TE14, BxPC-3) (human, UniProt P35052 24-530).
T1 sequence: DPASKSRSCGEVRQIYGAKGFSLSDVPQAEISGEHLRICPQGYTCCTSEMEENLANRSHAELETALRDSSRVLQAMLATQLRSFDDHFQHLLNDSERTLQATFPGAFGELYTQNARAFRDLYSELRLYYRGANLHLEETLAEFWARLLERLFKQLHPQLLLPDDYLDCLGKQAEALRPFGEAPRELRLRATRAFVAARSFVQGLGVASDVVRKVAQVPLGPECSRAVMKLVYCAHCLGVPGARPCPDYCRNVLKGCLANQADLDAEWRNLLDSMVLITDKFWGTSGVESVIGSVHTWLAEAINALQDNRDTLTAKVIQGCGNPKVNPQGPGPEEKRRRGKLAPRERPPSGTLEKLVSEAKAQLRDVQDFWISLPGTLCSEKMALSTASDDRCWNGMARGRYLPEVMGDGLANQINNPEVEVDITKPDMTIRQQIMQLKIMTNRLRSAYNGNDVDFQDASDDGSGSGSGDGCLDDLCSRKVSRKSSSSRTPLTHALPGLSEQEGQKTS
As to the kind of experiment: cell-based or functional assay.

The target of test [2] is T2, recombinant human GPC1 protein (R&D Systems) (human, UniProt P35052 24-530).
T2 construct: Bought recombinant protein (R&D Systems); also called human GPC-1 antigen; Glypican-1
T2 sequence: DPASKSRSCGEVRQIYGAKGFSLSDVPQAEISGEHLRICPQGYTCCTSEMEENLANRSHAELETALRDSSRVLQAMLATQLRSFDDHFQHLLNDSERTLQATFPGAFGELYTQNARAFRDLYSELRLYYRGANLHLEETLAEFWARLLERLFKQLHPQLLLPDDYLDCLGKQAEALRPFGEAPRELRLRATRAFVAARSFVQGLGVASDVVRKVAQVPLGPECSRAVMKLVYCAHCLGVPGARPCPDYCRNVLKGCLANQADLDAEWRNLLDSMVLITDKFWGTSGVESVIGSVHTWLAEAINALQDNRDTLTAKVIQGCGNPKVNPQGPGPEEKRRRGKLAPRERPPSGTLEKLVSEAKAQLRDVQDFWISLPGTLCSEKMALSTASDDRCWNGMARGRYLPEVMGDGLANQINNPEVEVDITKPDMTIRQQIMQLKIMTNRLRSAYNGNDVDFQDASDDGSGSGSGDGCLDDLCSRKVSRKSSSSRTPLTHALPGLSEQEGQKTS
Description: SPR (Biacore 8K); antibody captured by anti-human IgG (Fc) on a CM5 chip, recombinant human GPC1 flowed over. The protocol:
The mouse anti-human-GPC1 monoclonal antibody was humanized (subclass: IgG4), and the obtained twenty clones (T1, T2, T3, T7, T8, T10, T11, T22, T26, T28, T29, T31, T32, T33, T34, T36, T43, T56, T57, T59) were prepared. An anti-human IgG (Fc) was immobilized on an sCM5 sensor chip (GE Healthcare) using Human antibody capture kit (GE Healthcare), and the affinity of each of these clones to a recombinant human GPC1 protein (R&D Systems) was measured using Biacore (registered trademark) 8K (GE Healthcare).

For test [3], the target named is T1, human GPC1 on the surface of …. As to the kind of experiment: flow cytometry on TE8 cells, antibody titration, FITC anti-human IgG as secondary antibody. The procedure: The measurement was performed with FACS CantoII (BD) using the human/mouse chimeric anti-GPC1 antibody (clone 01a033) and the humanized anti-GPC1 antibody (clone T2) as primary antibodies at various concentrations and FITC labeled anti-human-IgG-FITC (Jackson Immuno Research, Catalog No. 109-095-098) as a secondary antibody, and the measurement data were analyzed using BD FACS Diva Software (BD).

For test [4] the target is unchanged. As to the kind of experiment: flow cytometry on BxPC3 cells, antibody titration, FITC anti-human IgG as secondary antibody. The procedure: In the FACS analysis using the antibody, cells of human pancreatic cancer cell line (BxPC-3) were used as GPC1-positive cells. The measurement was performed with FACS CantoII (BD) using the humanized anti-GPC1 antibody (clone T2) and the humanized GPC1-ADC (MMAE) as primary antibodies at various concentrations and FITC labeled anti-human-IgG-FITC (Jackson Immuno Research, Catalog No. 109-095-098) as a secondary antibody, and the measurement data were analyzed using BD FACS Diva Software (BD).
The influence of conjugation of a payload with the humanized anti-GPC1 antibody (T2) on the antigen affinity was evaluated by analyzing the antibody concentration-dependent binding ability with FACS using GPC1 expression-positive BxPC3 cells.
For orientation: A flow cytometer gives signals particle by particle.

For test [5] the target is unchanged. Description: cell-based or functional assay. The source holds these as a separate data set.
Test [6] shares this target. As to the kind of experiment: cell-based or functional assay. This is another data set of the same source.
Another test concerns the target T3, MC38-mGPC1.
T3 mouse Glypican-1: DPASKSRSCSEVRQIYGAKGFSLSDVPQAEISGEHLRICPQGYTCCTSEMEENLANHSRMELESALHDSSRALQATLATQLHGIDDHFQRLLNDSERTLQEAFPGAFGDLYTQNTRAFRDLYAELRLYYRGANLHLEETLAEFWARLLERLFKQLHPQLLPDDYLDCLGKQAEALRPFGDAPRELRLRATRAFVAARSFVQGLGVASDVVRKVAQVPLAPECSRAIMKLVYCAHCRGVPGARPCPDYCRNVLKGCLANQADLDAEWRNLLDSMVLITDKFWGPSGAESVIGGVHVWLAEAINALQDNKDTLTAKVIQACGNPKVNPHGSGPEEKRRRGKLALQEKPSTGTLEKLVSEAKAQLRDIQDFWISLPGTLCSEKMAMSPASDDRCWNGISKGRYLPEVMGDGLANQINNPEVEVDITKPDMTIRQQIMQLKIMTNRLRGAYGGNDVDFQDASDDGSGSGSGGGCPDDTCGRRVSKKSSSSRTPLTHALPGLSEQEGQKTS
As to the kind of experiment: cell-based or functional assay.

Broadly, the Kd is the free concentration of one partner at which half of the binding sites on the other are occupied at equilibrium, for simple one-to-one binding. Usually koff stands for a measure of how fast the partners let go of each other. What is called kon is the rate constant with which the complex forms.

B1: human/mouse chimeric anti-GPC1 antibody (clone 01a033) (antibody, human IgG4 S228P, kappa, V domains shown)
VH: QVQLKQSGPELVKPGASVKISCKASGYSFTGYYMHWVKQSPEKSLEWIGEINPSTGDTTYNQKFKAKATLTVDKSSSTAYMQLKSLTSEDSAVYYCAREKRDDGVFAYWGQGTLVTVSS
VL: DIVMSQSPKSMSMSVGERVALSCKASENVGTYVSWYQQKPEQSPKLLIYGASNRYTGVPDRFTGSGSATDFTLTISSVQAEDLADYYCGQSYSYPLTFGAGTKLELKR
notes: also called chimeric mouse antibody (01a033); anti-GPC-1 chimeric antibody (01a033)
Consider B1, for which the “IC50 of cytotoxicity on TE14 cells (ATP cell viability, 144 h) with MMAF-linked anti-human-IgG Fab as secondary antibody” value (from here on “IC50 of cytotoxicity on TE14 cells”) in test [1] worked out at 71 pM. In test [2], the dissociation constant Kd was 10200 pM, the off-rate constant (koff) turned out to be 0.00309 s⁻¹ and the on-rate constant (kon) turned out to be 302000 M⁻¹ s⁻¹. This molecule registered a Kd in test [3] of 2380 pM.

B2: humanized anti-GPC1 antibody (clone T2) (antibody, human IgG4 S228P, kappa, V domains shown)
VH: QVQLVQSGAEVKKPGASVKVSCKASGYTFTGYYMHWVRQAPGQGLEWMGEINPSTGDTTYNQKFKARVTMTRDTSTSTVYMELSSLRSEDTAVYYCAREKRDDGVFAYWGQGTLVTVSS
VL: DIVMTQSPSFLSASVGDRVTITCRASQGISSYLVWYQQKPGKPPKLLIYSASVLQSGVPSRFSGRGYGTDFTLTISSLQPEDFATYYCQQSFSIPPVTFGGGTKVEIKR
notes: IgG; also called humanized anti-GPC1 antibody (T2); unlabeled antibody
For B2, the “IC50 of cytotoxicity on TE14 cells” value in test [1] came out at 36.1 pM. Further, the values for the Kd in test [4], in test [2] and in test [3] were 529 pM, 5200 pM and 1890 pM, respectively. Besides, in test [2], the koff amounted to 0.00125 s⁻¹. In addition, in test [2], the kon is 240000 M⁻¹ s⁻¹.

B3: humanized anti-GPC1 monoclonal antibody clone T56 (antibody, human IgG4 S228P, kappa, V domains shown)
VH: QVQLVQSGAEVKKPGASVKVSCKASGYTFTGYYMHWVRQAPGQGLEWMGEINPSTGDTTYNQKFKARVTMTRDTSTSTVYMELSSLRSEDTAVYYCAREKRDDGVFAYWGQGTLVTVSS
VL: DIVMTQSPSTLSASVGDRVTIICRASQSIGPWLAWYQQKSGKAPKLLIYGASNLQSGVPSRFSGSGYGTDFTLTISSLQPEDFATYYCQQTSSAPFTFGPGTKVDIKR
notes: IgG
As to B3, the “IC50 of cytotoxicity on TE14 cells” value in test [1] was 50.1 pM. Besides, in test [2], the Kd came out at 6930 pM, the koff stood at 0.0018 s⁻¹ and the kon was 259000 M⁻¹ s⁻¹.

B4: humanized anti-GPC1 monoclonal antibody clone T29 (antibody, human IgG4 S228P, kappa, V domains shown)
VH: QVQLVQSGAEVKKPGASVKVSCKASGYTFTGYYMHWVRQAPGQGLEWMGEINPSTGDTTYNQKFKARVTMTRDTSTSTVYMELSSLRSEDTAVYYCAREKRDDGVFAYWGQGTLVTVSS
VL: DIVMTQSPSSLSASVGDRVTITCRASQDISSYLNWYQQKPGEAPKLLVYGASNLQRGVPPGFRGSGSGTDFTLTINNLQPEDFATYYCQQSSTSPITFGQGTRLEIKR
notes: IgG
Take B4: in test [1], the “IC50 of cytotoxicity on TE14 cells” value came out at 2180 pM. In test [2], the dissociation constant (Kd) was found to be 324000 pM, the koff turned out to be 0.0664 s⁻¹ and the kon stood at 205000 M⁻¹ s⁻¹.

B5: humanized anti-GPC1 monoclonal antibody clone T8 (antibody, human IgG4 S228P, kappa, V domains shown)
VH: QVQLVQSGAEVKKPGASVKVSCKASGYTFTGYYMHWVRQAPGQGLEWMGEINPSTGDTTYNQKFKARVTMTRDTSTSTVYMELSSLRSEDTAVYYCAREKRDDGVFAYWGQGTLVTVSS
VL: EIVMTQSPSSVSASVGDRVTITCRTSQSISSYLNWYQLRPGRAPKLLIYAASNLQSGVPSRFSGSGFGTDFTLTISSVQPEDFATYYCQQAKSYPLTFGGGTKVDIKR
notes: IgG
Regarding B5, the “IC50 of cytotoxicity on TE14 cells” value in test [1] came out at 37.9 pM. Also, in test [2], the Kd turned out to be 5070 pM, the koff worked out at 0.00118 s⁻¹ and the kon came to 234000 M⁻¹ s⁻¹.

B6: humanized anti-GPC1 monoclonal antibody clone T36 (antibody, human IgG4 S228P, kappa, V domains shown)
VH: QVQLVQSGAEVKKPGASVKVSCKASGYTFTGYYMHWVRQAPGQGLEWMGEINPSTGDTTYNQKFKARVTMTRDTSTSTVYMELSSLRSEDTAVYYCAREKRDDGVFAYWGQGTLVTVSS
VL: NIQMTQSPSSLSASVGDRVTITCQASQDISNYLNWYQQRPGKAPQLLIYGASNLERGVPSRFSGSGFGTDFTLTISSVQPEDFATYYCQQAKSYPLTFGGGTKVEIKR
notes: IgG
As for B6, the “IC50 of cytotoxicity on TE14 cells” value in test [1] came to 45.9 pM. In test [2], the Kd came out at 9800 pM, the koff is 0.00227 s⁻¹ and the kon worked out at 231000 M⁻¹ s⁻¹.

B7: humanized GPC1-ADC (MMAE) (antibody, V domains shown)
VH: QVQLVQSGAEVKKPGASVKVSCKASGYTFTGYYMHWVRQAPGQGLEWMGEINPSTGDTTYNQKFKARVTMTRDTSTSTVYMELSSLRSEDTAVYYCAREKRDDGVFAYWGQGTLVTVSS
VL: DIVMTQSPSFLSASVGDRVTITCRASQGISSYLVWYQQKPGKPPKLLIYSASVLQSGVPSRFSGRGYGTDFTLTISSLQPEDFATYYCQQSFSIPPVTFGGGTKVEIKR
modifications: MC-vc-PAB-MMAE linked by maleimide to cysteines of the reduced interchain disulfide bonds; DAR 4.0 for the whole antibody
notes: also called humanized anti-GPC1-ADC; humanized anti-GPC1-ADC (MMAE)
For the molecule B7, in test [5], the “IC50 of growth inhibition of Ho-1-u-1 cells (in-vitro ADC assay, CellTiter-Glo, 144 h)” value was 329 pM and the “IC50 of growth inhibition of KON cells (in-vitro ADC assay, CellTiter-Glo, 144 h)” value was 153 pM. For the same molecule, in test [6], the “IC50 of growth inhibition of Detroit562 cells (in-vitro ADC assay, CellTiter-Glo, 144 h)” value is 724 pM; the “IC50 of growth inhibition of FaDu cells (in-vitro ADC assay, CellTiter-Glo, 144 h)” value was 300 pM; the “IC50 of growth inhibition of HeLa cells (in-vitro ADC assay, CellTiter-Glo, 144 h)” value was found to be 259 pM. Further, in the test with MC38-mGPC1, the “IC50 of growth inhibition of MC38-mGPC1 cells (in-vitro ADC assay)” value was determined as 2290 pM. The molecule further came in with a Kd in test [4] of 570 pM.

B8: humanized anti-GPC1 monoclonal antibody clone T57 (antibody, human IgG4 S228P, kappa, V domains shown)
VH: QVQLVQSGAEVKKPGASVKVSCKASGYTFTGYYMHWVRQAPGQGLEWMGEINPSTGDTTYNQKFKARVTMTRDTSTSTVYMELSSLRSEDTAVYYCAREKRDDGVFAYWGQGTLVTVSS
VL: EIVMTQSPSSLSASVGDRVTISCRTSQTIRHYLNWYQQKPGKAPKLLIYDASNLKTGVPSRFSGSGSGTSFTLTISSLQPDDFATYYCQQSYSTPRTFGQGTKVEIKR
notes: IgG
As for B8, the “IC50 of cytotoxicity on TE14 cells” value in test [1] stood at 45.9 pM. Also, in test [2], the Kd turned out to be 102000 pM, the off-rate constant (koff) is 0.0135 s⁻¹ and the on-rate (kon) came out at 132000 M⁻¹ s⁻¹.

These data come from US20230250188A1 (NATIONAL UNIVERSITY CORPORATION KOCHI UNIVERSITY, published 2023).
